From patent US20150299335A1 (X BODY, published 2015)

Key:
[1] = biological target: T1, HER2 (UniProt P04626 23-652, limits assumed); assay: surface plasmon resonance (Biacore Kinetics), table under the sensorgrams [table at the bottom]
T1 construct: also called receptor tyrosine-protein kinase erbB-2

[2] = biological target: T1, HER2; assay: saturation binding curve, CPM against Her 2 (nM), 0 to 50 nM, plateau about 470 CPM; the text does not name the assay [upper left graph]
[3] = biological target: T1, HER2; assay: saturation binding curve, CPM against Her 2 (nM), 0 to 50 nM, plateau about 470 CPM; the text does not name the assay [left graph]
[4] = biological target: T1, HER2; assay: surface plasmon resonance (Biacore)

B1: B8 anti-HER2 VH domain (other)
VH: EVQLVESGAEVKEPGASVKVSCKSSGYSFTGNYMHWVRQAPGQGLEWMGWMNPKSGGTYYAQKFQGRVTMTWDTSISTAYMELSGLTSDDTAVYYCARWARGSTSPHGLDVWGQGTLVTVSS
notes: Stand-alone antibody VH domain with no light chain; also called B8 VH domain; B8 VH
[1]
  Kd: 1.2 nM
  koff: 0.000167 s⁻¹
  kon: 139000 M⁻¹ s⁻¹
[2]
  Kd: 1.4 nM
[3]
  Kd: 1.4 nM
[4]
  Kd: 1.2 nM
  kon: 139000 M⁻¹ s⁻¹
